From US20110065645A1, “Compositions and Methods for Modulating Neuron Degeneration and Neuron Guidance” (The Regents of the University of California, priority 2009, published 2011)

What was measured:
[1] = system: commissural axons; experiment: Axon length of electroporated dissociated commissural neurons on Wnt5a-coated coverslips; type: cell-based, rat
Excerpt: Fzd3 mediates Wnt-stimulated commissural axon elongation. To directly test the function of PCP components in Wnt-mediated outgrowth of commissural axons, we electroporated DNA constructs to express PCP components in dissociated commissural neurons. The spinal cord of E11.5 mouse or E13 rat contains a ventricle into which plasmid DNA can be introduced (FIG. 28A). After injecting DNA into the central canal and electroporation, the spinal cord was dissected into an “open-book” configuration and then the dorsal spinal cord margin including the progenitor domains was dissociated as previously described ((Augsburger et al., 1999), FIG. 28A). More than 90% of the electroporated and dissociated neurons were TAG-1 immuno-reactive, confirming that they are commissural neurons (Wolf et al., 2008).
This may be due the presence of low endogenous levels of PCP components in these axons following 24 hours of culture (FIGS. 20A-20E).
Electroporated commissural culture. Electroporations of rat E13 spinal cords were completed as previously described (Wolf et al., 2008). Neurons were dissociated from these spinal preps and grown as previously described (Augsburger et al., 1999). […] The axons lengths were quantified with Zeiss LSM510 software, verified with ImageJ quantification, and the data were analyzed with an unpaired two-tailed t test for each electroporation condition.

[2] = target: T1, Fzd3 (Mus musculus, UniProt Q61086); experiment: Surface biotinylation and avidin immunoprecipitation of Fzd3 in HEK293T cells; type: cell-based
T1 construct: expressed in transfected cells; host or cells: HEK293T
T1 sequence (Q61086 23-666): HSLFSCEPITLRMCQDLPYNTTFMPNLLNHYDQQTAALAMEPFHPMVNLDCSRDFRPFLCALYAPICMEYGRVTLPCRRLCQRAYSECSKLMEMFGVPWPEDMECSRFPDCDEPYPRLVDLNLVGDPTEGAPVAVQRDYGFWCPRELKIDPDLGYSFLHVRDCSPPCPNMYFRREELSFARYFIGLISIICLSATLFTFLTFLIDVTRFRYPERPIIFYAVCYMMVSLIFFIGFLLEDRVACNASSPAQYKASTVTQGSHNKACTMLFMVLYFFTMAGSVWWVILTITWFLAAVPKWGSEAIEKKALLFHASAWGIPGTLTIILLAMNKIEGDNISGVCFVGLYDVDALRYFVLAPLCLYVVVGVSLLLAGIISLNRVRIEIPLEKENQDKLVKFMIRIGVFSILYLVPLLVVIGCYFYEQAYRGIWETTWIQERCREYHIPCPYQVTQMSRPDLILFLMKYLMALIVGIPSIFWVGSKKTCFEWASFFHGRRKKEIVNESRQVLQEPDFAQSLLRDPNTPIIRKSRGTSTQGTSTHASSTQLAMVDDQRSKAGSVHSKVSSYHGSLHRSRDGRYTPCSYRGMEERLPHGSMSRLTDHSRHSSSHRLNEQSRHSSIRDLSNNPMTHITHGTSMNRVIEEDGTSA
Excerpt: Dvl and Vgl have antagonistic functions on Fzd3 phosphorylation. […] We transfected Fzd3-mCherry in HEK293T cells then surface biotinylated and immunoprecipitated (IP) the surface molecules with strepavidin-conjugated beads to obtain membrane-localized proteins. […] We tested whether these two Fzd3 bands represent phosphorylation states of the Frizzled3 protein, one being phosphorylated/hyperphosphorylated Fzd3 (p-Fzd3) and the other non-phosphorylated Fzd3. […] Phosphorylation of Fzds has been shown previously in Xenopus oocytes
It has been proposed that Frizzled internalization is necessary for PCP signaling and phenotypes (Gagliardi et al., 2008; Yu et al., 2007). However, it has never been directly tested whether the cell surface level of Fzd, the Wnt-PCP receptor, changes upon Wnt addition. By using our surface biotinylation and immunoprecipitation with avidin, we show here, 15 minutes after Wnt addition, cell surface level of Fzd3-EGFP is diminished (FIG. 18C, Avidin IP, lane 3 anti-EGFP IB). […] This Fzd3 receptor oscillation from and to the membrane appeared to be a Wnt-Fzd specific effect because a non-Wnt binding receptor, such as the Insulin receptor stayed the same throughout the Wnt stimulation (FIG. 18C, Avidin IP, anti-Insulin Rβ IB). The Wnt-dependent Fzd3 oscillation is quantified in FIG. 18D (cross symboled line). […] In addition, PCP components appeared to effect this Wnt dependent oscillation of Fzd3 to and from the membrane. When Dvl1 is over expressed with Fzd3, we found within 30 minutes Fzd3 is unable to be internalized (FIG. 25B, lanes 5-7 and line). However, upon the introduction of Vangl2 into the transfection mix, Fzd3 oscillation is resumed (FIG. 25B, lanes 8-10 and circle symboled line).
Surface biotinylation and immunopreciptiation. 30 hours after transfection with the indicated constructs into HEK293T cells (FuGene, Roche), followed by 8-hour incubation in Optimem and subsequent bath application of recombinant Wnt5a (R&D Systems), surface proteins were subsequently labeled on ice with 1 mg/ml of Sulfo-NHS-LC-Biotin reagent (Pierce). The cell lysates were collect over a period of 30 minutes on ice in the following lysis buffer: 20 mM Tris pH7.6, 150 mM NaCl, 1% Triton, 0.1% SDS, 2.5 mM EDTA, 2.5 mM EGTA, protease Inhibitors (Roche). For the membrane immunoprecipitation, 600 ug of protein extracts were incubated overnight and retrieved by NeutrAvidin-coated Agarose beads (Pierce), the bound fraction was boiled and loaded on SDS-PAGE gel and analyzed by western blot analysis. To visualize the input amount 20 ug of total lysate was loaded, and for the Avidin IPs the total amount was loaded for western blot analysis. The following primary antibodies were used for the immunoblots: α-Frizzled3 (Wang et al., 2006), α-Vangl2 (Santa Cruz), α-mCherry/DsRed (Clontech), α-Jun (Cell Signaling), α-phospho-Jun (Cell Signaling), α-JNK (Cell Signaling), α-phospho-JNK (Cell Signaling), α-Flag (Sigma), α-GAPDH (Chemicon), α-Insulin Rβ (Santa Cruz).

time of Fzd3-EGFP internalization ([2]; high concentration (200 ng/ml), batch #1): 15 minute and two hour | time of Fzd3-EGFP internalization ([2]; high concentration, batch #2): 15 min and 60 min | time of Fzd3-EGFP internalization ([2]; low concentration (100 ng/ml), batch #1): 30 min | cell surface levels of Fzd3 ([2]; upon the addition of Wnt5a): reduction of cell surface levels of Fzd3
B1: Wnt5a: recombinant Wnt5a protein (R&D Systems) (protein, UniProt P41221 62-380, looked up)
Protein Wnt-5a: IIGAQPLCSQLAGLSQGQKKLCHLYQDHMQYIGEGAKTGIKECQYQFRHRRWNCSTVDNTSVFGRVMQIGSRETAFTYAVSAAGVVNAMSRACREGELSTCGCSRAARPKDLPRDWLWGGCGDNIDYGYRFAKEFVDARERERIHAKGSYESARILMNLHNNEAGRRTVYNLADVACKCHGVSGSCSLKTCWLQLADFRKVGDALKEKYDSAAAMRLNSRGKLVQVNSRFNSPTTQDLVYIDPSPDYCVRNESTGSLGTQGRLCNKTSEGMDGCELMCCGRGYDQFKTVQTERCHCKFHWCCYVKCKKCTEIVDQFVCK
increase in axon growth ([1]; control neurons expressing EGFP): ~15% | enhancement of axon length ([1]; neurons over-expressing Fzd3-EGFP, within 24 hours): ~36%
